{"source": "paper PMC2196205", "key": {"Zif268 [1]": {"molecular_target": "T1, Zif268 (mouse, UniProt P08046 333-421)", "experiment": "SPR"}, "Zif268 [2]": {"molecular_target": "T1, Zif268", "experiment": "ELISA"}, "Zif268 [3]": {"molecular_target": "T1, Zif268", "experiment": "SPR", "remark": "listed apart in the source"}}}
{"binder": "ZifDNA (dsDNA) DNA 1: GGCATAGTGCGTGGGCGTTAGC DNA 2: GCTAACGCCCACGCACTATGCC", "values": [{"measurement": "Kd", "setting": "Zif268 [1]", "result": "5.3 ± 1.5", "unit": "nM"}, {"measurement": "Kd", "setting": "Zif268 [2]", "result": "12 ± 5", "unit": "nM"}]}
{"binder": "GGTTAGGGTTAGGGTTAGGGTTAGGGTTAG (structured_DNA)", "note": "[Htelo]", "values": [{"measurement": "binding result", "setting": "Zif268 [3]", "result": "no binding"}]}
